We go through seven molecules from patent publication US7390645B2, “Lactose repressor proteins with increased operator DNA binding affinity” (William Marsh Rice University, priority 1997, dated 2008).

Positions count from the first letter of the chain named. Entries after “also recorded” stand apart in the source; their conditions may differ. Read-outs that look alike come from different tables or passages of the source.

For experiment [1], the target named is O^1 operator sequences (lac operator DNA). Briefly: lac operator DNA binding of lac repressor proteins characterized in vitro. Details: species or system E. coli. The settings on record: for affinity for lac operator DNA (in words): relative to wild-type lac repressor unless stated. From the text: The term “affinity”, as used in conjunction with the lac operator or an inducer ligand, is defined as 1/Kd, where Kd is the concentration of DNA or ligand required to occupy 50% of the available binding sites.
(§1) To test an altered lac repressor protein, the coding sequence for the altered lac repressor protein can be cloned into an expression vector. The expression vector can then be placed into bacterial or eukaryotic cells containing a reporter gene under lac operator control to test for an active repressor protein. For example, a reporter containing E. coli β-galactosidase (encoded by lacZ) has been constructed by excising the lacZ gene under control of the lac operator from the plasmid pCR2.1 (Invitrogen) and inserting it into plasmid pACYC184 (New England Biolabs). This new composite reporter plasmid is named pZCam and can be co-transformed or electroporated into bacteria with the plasmids containing the coding sequences of altered lac repressor proteins. Host cells for these plasmids should have neither lactose repressor nor β-galactosidase proteins (i.e., the cells are lacI^− lacZ^−). Next, these bacteria are plated in the presence of either methyl umbelliferyl-β-D-galactoside (MUG) or 5-bromo-4-chloro-3-indolyl-β,D-galactoside (X-gal) as indicators to determine whether an active repressor protein is present (white colonies). In the presence of an inducer sugar, colonies containing inducer-responsive repressor protein will be fluorescent (MUG) or blue (X-gal). Alternatively, the coding sequence can be cloned into any expression vector known in the art and transformed into E. coli that are lacI^−, preferably ΔlacI, and lacpOz^+. The lacpOz region can be on a different, but compatible, plasmid or in the bacterial genome. Colonies containing active repressor protein will be white in the absence of an inducer and fluorescent (MUG) or blue (X-gal) in the presence of an inducer. Specific amino acid changes that result in increased operator binding affinity or enhanced ligand responsivity can be determined. LacI derivatives with appropriate properties are then isolated and characterized in vitro for their (a) O^1 operator DNA binding properties in the absence and presence of the appropriate inducer ligand and (b) inducer ligand binding properties in the absence and presence of operator DNA. Purified proteins can be obtained by standard protein purification methods known to those of skill in the art.

A short description of experiment [2]: responsivity of lac repressor proteins to inducer ligand. The settings on record: relative to wild-type lac repressor. The format is biochemical, E. coli.
Excerpt: as §1
Mutants can be screened by phenotypic analysis as described above. In the preferred forms, the plasmid containing the gene for altered lac repressor protein is either co-transformed with the reporter plasmid pZCam or is transformed into E. coli that are ΔlacI and lacpOz^+. Introduction of wild-type lac repressor protein into bacteria containing pZCam or into the ΔlacI/lacpOz^+ bacteria results in white colonies in the presence of MUG or X-gal. In contrast, in the presence of IPTG or the alternative ligand, the colonies are fluorescent (MUG) or blue (X-gal). […]

Experiment [3] concerns O^1 operator sequences (lac operator DNA). The following applies: relative to wild-type lac repressor; cited from earlier work.
For experiment [4] the following is noted: reduced form; cited from earlier work.
Where [5] appears, read: read-out: Kd for O^1 operator sequences.

B1: Gln60Gly: altered lac repressor protein with glycine substituted for glutamine at amino acid number 60; SEQ ID NO:2 (protein, listed as Escherichia coli)
chain: MKPVTLYDVAEYAGVSYQTVSRVVNQASHVSAKTREKVEAAMAELNYIPNRVAQQLAGKGSLLIGVATSSLALHAPSQIVAAIKSRADQLGASVVVSMVERSGVEACKAAVHNLLAQRVSGLIINYPLDDQDAIAVEAACTNVPALFLDVSDQTPINSIIFSHEDGTRLGVEHLVALGHQQIALLAGPLSSVSARLRLAGWHKYLTRNQIQPIAEREGDWSAMSGFQQTMQMLNEGIVPTAMLVANDQMALGAMRAITESGLRVGADISVVGYDDTEDSSCYIPPLTTIKQDFRLLGQTSVDRLLQLSQGQAVKGNQLLPVSLVKRKTTLAPNTQTASPRALADSLMQLARQVSRLESGQ
By Kd is commonly meant the free concentration of one partner at which half of the binding sites on the other are occupied at equilibrium, for simple one-to-one binding. For the molecule B1, the Kd in experiment [1] (presence of 1 mM IPTG, read-out: Kd for O^1 operator sequences in the presence of 1 mM IPTG) was more than 100 nM; in experiment [1] (setting [5]) it was 0.004 nM. Further, in experiment [1], the “affinity for lac operator DNA (in words)” value is listed as “increased affinity for operator sequences”. Besides, the “responsivity to inducer (in words)” value in experiment [2] is on record as “close to normal responsivity to inducer”.

B2: Gln55Glu: Gln55Glu mutant of the lac repressor (protein)
chain: B1 chain with Q55E, G60Q
Regarding B2, the “affinity for lac operator DNA (in words), from cited work” value in experiment [3] is on record as “decreased affinity for lac operator DNA”.

B3: wild-type LacI: naturally occurring E. coli lac repressor protein (LacI); SEQ ID NO:1 (protein, listed as Escherichia coli)
chain: B1 chain with G60Q
As to B3, the Kd in experiment [1] (setting [5]) worked out at 0.012 nM.

B4: Pro320Ala: lac repressor protein Pro320Ala identified by random mutagenesis and phenotypic screening (protein)
chain: B1 chain with G60Q, P320A
Regarding B4, in experiment [1] (higher affinity than wild-type), the “operator DNA affinity relative to wild-type lac repressor” value is 10 fold. Besides, the “affinity for lac operator DNA (in words)” value in experiment [1] is reported as “increased DNA affinity”. In addition, the “responsivity to inducer (in words)” value in experiment [2] is “normal inducer responsivity; also recorded: wild-type inducer responsivity”.

B5: Leu148Phe (protein)
chain: B1 chain with G60Q, L148F
In the case of B5, the “affinity for lac operator DNA (in words)” value in experiment [1] is recorded as “slightly diminished DNA affinity; also recorded: diminished affinity for operator sequences”. Moreover, in experiment [2], the “responsivity to inducer (in words)” value is given as “enhanced responsivity to IPTG”.

B6: Gln60Gly/Leu148Phe (protein)
chain: B1 chain with L148F
B6: the “affinity for lac operator DNA (in words)” value in experiment [1] is listed as “increased affinity for operator sequence compared to Leu148Phe (affinity comparable to wild-type lac repressor)”. In addition, the “responsivity to inducer (in words)” value in experiment [2] is “enhanced inducer responsivity comparable to Leu148Phe”.

B7: Val52Cys: mutation of lac repressor amino acid 52 from Val to Cys (protein)
chain: B1 chain with V52C, G60Q
With B7, the “affinity for lac operator DNA (in words), from cited work” value in experiment [3] was “increased affinity for the lac operator DNA”. Further, the “response to inducer (in words), from cited work” value in experiment [4] is listed as “normal response to inducer in reduced form”.
